# According to patent publication US20180155451A1 (published 2018):
# B1: GpH7-A5/GpH7-B3 variant I336_06M/GpL16-k0 (He Ab) (antibody, human IgG1, kappa)
# heavy 1: not shown
# heavy 2: not shown
# light: DIVMTQSPLSLPVTPGEPASISCQASESLVHSNRNTYLHWYLQKPGQSPQLLIYKVSNRFSGVPDRFSGSGSGTDFTLKISRVEAEDVGVYYCSQNTHVPPTFGQGTKVEIERTVAAPSVFIFPPSDEQLKSGTASVVCLLNNFYPREAKVQWKVDNALQSGNSQESVTEQDSKDSTYSLSSTLTLSKADYEKHKVYACEVTHQGLSSPVTKSFNRGEC
# notes: He Ab: alteration only in the GpH7-B3 chain
# B2: GpH7-A5/GpH7-B3 variant P271_03V/GpL16-k0 (He Ab) (antibody, human IgG1, kappa)
# heavy 1: not shown
# heavy 2: not shown
# light: B1 light
# notes: as for B1
# B3: GpH7-A5/GpH7-B3 variant P271_06M/GpL16-k0 (He Ab) (antibody, human IgG1, kappa)
# heavy 1: not shown
# heavy 2: not shown
# light: B1 light
# notes: as for B1
# B4: GpH7-A5/GpH7-B3 variant E269_04F/GpL16-k0 (He Ab) (antibody, human IgG1, kappa)
# heavy 1: not shown
# heavy 2: not shown
# light: B1 light
# notes: as for B1
# B5: GpH7-A5/GpH7-B3 variant E269_15Y/GpL16-k0 (He Ab) (antibody, human IgG1, kappa)
# heavy 1: not shown
# heavy 2: not shown
# light: B1 light
# notes: as for B1
# B6: GpH7-A5/GpH7-B3 variant Q295_13S/GpL16-k0 (He Ab) (antibody, human IgG1, kappa)
# heavy 1: not shown
# heavy 2: not shown
# light: B1 light
# notes: as for B1
# B7: GpH7-A5/GpH7-B3 variant E333_01G/GpL16-k0 (He Ab) (antibody, human IgG1, kappa)
# heavy 1: not shown
# heavy 2: not shown
# light: B1 light
# notes: as for B1
# B8: GpH7-A5/GpH7-B3 variant S298_10E/GpL16-k0 (He Ab) (antibody, human IgG1, kappa)
# heavy 1: not shown
# heavy 2: not shown
# light: B1 light
# notes: as for B1
# B9: GpH7-A5/GpH7-B3 variant K326_14T/GpL16-k0 (He Ab) (antibody, human IgG1, kappa)
# heavy 1: not shown
# heavy 2: not shown
# light: B1 light
# notes: as for B1
# B10: GpH7-A5/GpH7-B3 variant Q295_14T/GpL16-k0 (He Ab) (antibody, human IgG1, kappa)
# heavy 1: not shown
# heavy 2: not shown
# light: B1 light
# notes: as for B1
# B11: GpH7-A5/GpH7-B3 variant S267_03V/GpL16-k0 (He Ab) (antibody, human IgG1, kappa)
# heavy 1: not shown
# heavy 2: not shown
# light: B1 light
# notes: as for B1
# B12: GpH7-A5/GpH7-B3 variant S298_16H/GpL16-k0 (He Ab) (antibody, human IgG1, kappa)
# heavy 1: not shown
# heavy 2: not shown
# light: B1 light
# notes: as for B1
# B13: GpH7-A5/GpH7-B3 variant S298_18N/GpL16-k0 (He Ab) (antibody, human IgG1, kappa)
# heavy 1: not shown
# heavy 2: not shown
# light: B1 light
# notes: as for B1
# B14: GpH7-A5/GpH7-B3 variant P271_11K/GpL16-k0 (He Ab) (antibody, human IgG1, kappa)
# heavy 1: not shown
# heavy 2: not shown
# light: B1 light
# notes: as for B1
# B15: GpH7-A5/GpH7-B3 variant P271_20W/GpL16-k0 (He Ab) (antibody, human IgG1, kappa)
# heavy 1: not shown
# heavy 2: not shown
# light: B1 light
# notes: as for B1
# B16: GpH7-A5/GpH7-B3 variant S324_14T/GpL16-k0 (He Ab) (antibody, human IgG1, kappa)
# heavy 1: not shown
# heavy 2: not shown
# light: B1 light
# notes: as for B1
# B17: GpH7-A5/GpH7-B3 variant K326_16H/GpL16-k0 (He Ab) (antibody, human IgG1, kappa)
# heavy 1: not shown
# heavy 2: not shown
# light: B1 light
# notes: as for B1
# B18: GpH7-A5/GpH7-B3 variant Q295_05P/GpL16-k0 (He Ab) (antibody, human IgG1, kappa)
# heavy 1: not shown
# heavy 2: not shown
# light: B1 light
# notes: as for B1
# B19: GpH7-A5/GpH7-B3 variant S324_02A/GpL16-k0 (He Ab) (antibody, human IgG1, kappa)
# heavy 1: not shown
# heavy 2: not shown
# light: B1 light
# notes: as for B1
# B20: GpH7-A5/GpH7-B3 variant I336_01G/GpL16-k0 (He Ab) (antibody, human IgG1, kappa)
# heavy 1: not shown
# heavy 2: not shown
# light: B1 light
# notes: as for B1
# B21: GpH7-A5/GpH7-B3 variant S267_09D/GpL16-k0 (He Ab) (antibody, human IgG1, kappa)
# heavy 1: not shown
# heavy 2: not shown
# light: B1 light
# notes: as for B1
# B22: GpH7-A5/GpH7-B3 variant S337_02A/GpL16-k0 (He Ab) (antibody, human IgG1, kappa)
# heavy 1: not shown
# heavy 2: not shown
# light: B1 light
# notes: as for B1
# B23: GpH7-A5/GpH7-B3 variant I336_10E/GpL16-k0 (He Ab) (antibody, human IgG1, kappa)
# heavy 1: not shown
# heavy 2: not shown
# light: B1 light
# notes: as for B1
# B24: GpH7-A5/GpH7-B3 variant S324_08L/GpL16-k0 (He Ab) (antibody, human IgG1, kappa)
# heavy 1: not shown
# heavy 2: not shown
# light: B1 light
# notes: as for B1
# B25: GpH7-A5/GpH7-B3 variant I336_02A/GpL16-k0 (He Ab) (antibody, human IgG1, kappa)
# heavy 1: not shown
# heavy 2: not shown
# light: B1 light
# notes: as for B1
# B26: GpH7-A5/GpH7-B3 variant Q295_18N/GpL16-k0 (He Ab) (antibody, human IgG1, kappa)
# heavy 1: not shown
# heavy 2: not shown
# light: B1 light
# notes: as for B1
# B27: GpH7-A5/GpH7-B3 variant E333_13S/GpL16-k0 (He Ab) (antibody, human IgG1, kappa)
# heavy 1: not shown
# heavy 2: not shown
# light: B1 light
# notes: as for B1
# B28: GpH7-A5/GpH7-B3 variant S298_19Q/GpL16-k0 (He Ab) (antibody, human IgG1, kappa)
# heavy 1: not shown
# heavy 2: not shown
# light: B1 light
# notes: as for B1
# B29: GpH7-A5/GpH7-B3 variant S239_09D/GpL16-k0 (He Ab) (antibody, human IgG1, kappa)
# heavy 1: not shown
# heavy 2: not shown
# light: B1 light
# notes: as for B1
# B30: GpH7-A5/GpH7-B3 variant P271_04F/GpL16-k0 (He Ab) (antibody, human IgG1, kappa)
# heavy 1: not shown
# heavy 2: not shown
# light: B1 light
# notes: as for B1
# Biological target: T1, FcγRIa extracellular domain with C-terminal His tag (human, UniProt P12314 16-292)
# T1 construct: extracellular domain; Expressed in FreeStyle293 cells; analyte in Biacore; also called FcgRI; FcgRIa
# Assay: SPR Biacore, antibody captured, FcγRIa analyte; vs GpH7-A5/GpH7-B3/GpL16-k0 = 100
# T1 sequence (P12314 16-292): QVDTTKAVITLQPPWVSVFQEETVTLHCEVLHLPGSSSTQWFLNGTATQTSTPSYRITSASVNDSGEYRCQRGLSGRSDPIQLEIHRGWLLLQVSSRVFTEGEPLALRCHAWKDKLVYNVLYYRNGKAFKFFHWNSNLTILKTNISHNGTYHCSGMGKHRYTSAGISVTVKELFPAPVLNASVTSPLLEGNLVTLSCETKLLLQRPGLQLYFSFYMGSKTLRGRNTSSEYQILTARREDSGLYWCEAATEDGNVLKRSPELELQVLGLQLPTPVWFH
row,He/Con_1a,Binder
1,108 relative (control = 100),B1
2,102 relative (control = 100),B2
3,102 relative (control = 100),B3
4,103 relative (control = 100),B4
5,106 relative (control = 100),B5
6,102 relative (control = 100),B6
7,103 relative (control = 100),B7
8,108 relative (control = 100),B8
9,104 relative (control = 100),B9
10,103 relative (control = 100),B10
11,106 relative (control = 100),B11
12,109 relative (control = 100),B12
13,108 relative (control = 100),B13
14,103 relative (control = 100),B14
15,103 relative (control = 100),B15
16,121 relative (control = 100),B16
17,103 relative (control = 100),B17
18,103 relative (control = 100),B18
19,103 relative (control = 100),B19
20,109 relative (control = 100),B20
21,110 relative (control = 100),B21
22,106 relative (control = 100),B22
23,108 relative (control = 100),B23
24,103 relative (control = 100),B24
25,106 relative (control = 100),B25
26,102 relative (control = 100),B26
27,103 relative (control = 100),B27
28,109 relative (control = 100),B28
29,101 relative (control = 100),B29
30,102 relative (control = 100),B30
